From patent US20220204580A1 (AstraZeneca / MedImmune, published 2022)
Numbered stars: 1 amine (or outer) side, 2 acyl side, 3 side chain; on linkers, the order of the positions; unused ones are H or OH. Bridge positions count the residues as written; N and C are the ends. Square brackets hold non-standard residues; d marks the D form. Side chains are listed from the residue outwards. Ends that are not written are not given here. * marks the point of attachment. C20 diacid = O=C(O)CCCCCCCCCCCCCCCCCCC(=O)*; C18 diacid = O=C(O)CCCCCCCCCCCCCCCCC(=O)*; γGlu = O=C(O)[C@H](CCC(=O)[*:2])N[*:1]; αMeF = C[C@](N)(Cc1ccccc1)C(=O)O; Dab = NCC[C@H](N)C(=O)O; AEEA = NCCOCCOCC(=O)O; Aib = CC(C)(N)C(=O)O

T1: human amylin receptor (calcitonin receptor co-expressed with receptor activity modifying protein, RAMP3) (human, UniProt P30988 25-474; O60896 24-148)
T1 sequence (looked up) 1: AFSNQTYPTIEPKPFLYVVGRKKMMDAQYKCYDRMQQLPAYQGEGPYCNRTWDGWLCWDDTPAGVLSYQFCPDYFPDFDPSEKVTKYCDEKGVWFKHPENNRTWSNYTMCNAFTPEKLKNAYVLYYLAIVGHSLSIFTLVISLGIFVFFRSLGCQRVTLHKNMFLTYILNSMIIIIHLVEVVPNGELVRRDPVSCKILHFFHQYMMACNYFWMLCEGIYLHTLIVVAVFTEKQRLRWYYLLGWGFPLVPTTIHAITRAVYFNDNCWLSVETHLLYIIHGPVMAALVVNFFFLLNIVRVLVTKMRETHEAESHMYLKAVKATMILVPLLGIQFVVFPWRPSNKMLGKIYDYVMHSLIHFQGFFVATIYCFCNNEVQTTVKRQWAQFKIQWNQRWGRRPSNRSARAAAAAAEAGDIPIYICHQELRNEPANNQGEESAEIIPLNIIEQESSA
T1 sequence (looked up) 2: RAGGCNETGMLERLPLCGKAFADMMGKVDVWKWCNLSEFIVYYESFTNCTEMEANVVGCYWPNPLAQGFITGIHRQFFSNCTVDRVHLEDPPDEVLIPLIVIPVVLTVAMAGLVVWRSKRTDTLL

T2: human calcitonin receptor (human, UniProt P30988 25-474)
T2 sequence (looked up): T1 sequence (looked up) 1

T3: rat amylin receptor (calcitonin receptor co-expressed with receptor activity modifying protein, RAMP3) (rat, UniProt P32214 25-516; Q9JJ73 23-147)
T3 sequence (looked up) 1: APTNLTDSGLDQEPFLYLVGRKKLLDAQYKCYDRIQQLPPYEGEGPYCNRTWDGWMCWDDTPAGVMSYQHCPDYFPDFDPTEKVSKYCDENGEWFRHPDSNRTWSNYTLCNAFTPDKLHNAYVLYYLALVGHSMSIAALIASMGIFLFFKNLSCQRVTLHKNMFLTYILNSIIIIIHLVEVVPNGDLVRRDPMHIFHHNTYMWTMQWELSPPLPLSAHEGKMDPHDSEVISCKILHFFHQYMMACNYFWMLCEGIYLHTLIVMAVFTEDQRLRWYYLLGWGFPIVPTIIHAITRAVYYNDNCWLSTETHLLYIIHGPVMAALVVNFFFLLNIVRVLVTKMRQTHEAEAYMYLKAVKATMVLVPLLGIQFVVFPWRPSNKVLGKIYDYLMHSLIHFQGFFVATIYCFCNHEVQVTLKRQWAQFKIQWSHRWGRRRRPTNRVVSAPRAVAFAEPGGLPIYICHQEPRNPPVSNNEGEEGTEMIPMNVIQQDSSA
T3 sequence (looked up) 2: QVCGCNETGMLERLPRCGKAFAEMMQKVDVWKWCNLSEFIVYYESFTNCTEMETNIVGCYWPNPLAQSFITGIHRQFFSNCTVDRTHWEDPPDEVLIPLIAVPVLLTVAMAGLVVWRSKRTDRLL

T4: rat calcitonin receptor (rat, UniProt P32214 25-516)
T4 sequence (looked up): T3 sequence (looked up) 1

B1: Peptide 48 (SEQ ID NO: 48) (peptide)
peptide: K([γGlu-C18 diacid])CNTATCATQRLANFLRHSS[Aib]NFGPILPPTNVGSNTY-NH2
modifications: disulfide 2-7; N-terminus assumed
SMILES: CC[C@H](C)[C@H](NC(=O)[C@@H]1CCCN1C(=O)CNC(=O)[C@H](Cc1ccccc1)NC(=O)[C@H](CC(N)=O)NC(=O)C(C)(C)NC(=O)[C@H](CO)NC(=O)[C@H](CO)NC(=O)[C@H](Cc1c[nH]cn1)NC(=O)[C@H](CCCNC(=N)N)NC(=O)[C@H](CC(C)C)NC(=O)[C@H](Cc1ccccc1)NC(=O)[C@H](CC(N)=O)NC(=O)[C@H](C)NC(=O)[C@H](CC(C)C)NC(=O)[C@H](CCCNC(=N)N)NC(=O)[C@H](CCC(N)=O)NC(=O)[C@@H](NC(=O)[C@H](C)NC(=O)[C@@H]1CSSC[C@H](NC(=O)[C@@H](N)CCCCNC(=O)CC[C@H](NC(=O)CCCCCCCCCCCCCCCCC(=O)O)C(=O)O)C(=O)N[C@@H](CC(N)=O)C(=O)N[C@@H]([C@@H](C)O)C(=O)N[C@@H](C)C(=O)N[C@@H]([C@@H](C)O)C(=O)N1)[C@@H](C)O)C(=O)N[C@@H](CC(C)C)C(=O)N1CCC[C@H]1C(=O)N1CCC[C@H]1C(=O)N[C@H](C(=O)N[C@@H](CC(N)=O)C(=O)N[C@H](C(=O)NCC(=O)N[C@@H](CO)C(=O)N[C@@H](CC(N)=O)C(=O)N[C@H](C(=O)N[C@@H](Cc1ccc(O)cc1)C(N)=O)[C@@H](C)O)C(C)C)[C@@H](C)O
B2: Peptide 8 (SEQ ID NO: 8) (peptide)
peptide: K([γGlu-γGlu-C18 diacid])CNTATCATQRLANFLVHSS[Dab]NFPAILSPTNVGSNTY-NH2
modifications: disulfide 2-7; N-terminus assumed
SMILES: CC[C@H](C)[C@H](NC(=O)[C@H](C)NC(=O)[C@@H]1CCCN1C(=O)[C@H](Cc1ccccc1)NC(=O)[C@H](CC(N)=O)NC(=O)[C@H](CCN)NC(=O)[C@H](CO)NC(=O)[C@H](CO)NC(=O)[C@H](Cc1c[nH]cn1)NC(=O)[C@@H](NC(=O)[C@H](CC(C)C)NC(=O)[C@H](Cc1ccccc1)NC(=O)[C@H](CC(N)=O)NC(=O)[C@H](C)NC(=O)[C@H](CC(C)C)NC(=O)[C@H](CCCNC(=N)N)NC(=O)[C@H](CCC(N)=O)NC(=O)[C@@H](NC(=O)[C@H](C)NC(=O)[C@@H]1CSSC[C@H](NC(=O)[C@@H](N)CCCCNC(=O)CC[C@H](NC(=O)CC[C@H](NC(=O)CCCCCCCCCCCCCCCCC(=O)O)C(=O)O)C(=O)O)C(=O)N[C@@H](CC(N)=O)C(=O)N[C@@H]([C@@H](C)O)C(=O)N[C@@H](C)C(=O)N[C@@H]([C@@H](C)O)C(=O)N1)[C@@H](C)O)C(C)C)C(=O)N[C@@H](CC(C)C)C(=O)N[C@@H](CO)C(=O)N1CCC[C@H]1C(=O)N[C@H](C(=O)N[C@@H](CC(N)=O)C(=O)N[C@H](C(=O)NCC(=O)N[C@@H](CO)C(=O)N[C@@H](CC(N)=O)C(=O)N[C@H](C(=O)N[C@@H](Cc1ccc(O)cc1)C(N)=O)[C@@H](C)O)C(C)C)[C@@H](C)O
B3: Peptide 9 (SEQ ID NO: 9) (peptide)
peptide: K([γGlu-γGlu-C18 diacid])CNTATCATQRLANFLVHSS[Aib]NFPAILSPTNVGSNTY-NH2
modifications: disulfide 2-7; N-terminus assumed
SMILES: CC[C@H](C)[C@H](NC(=O)[C@H](C)NC(=O)[C@@H]1CCCN1C(=O)[C@H](Cc1ccccc1)NC(=O)[C@H](CC(N)=O)NC(=O)C(C)(C)NC(=O)[C@H](CO)NC(=O)[C@H](CO)NC(=O)[C@H](Cc1c[nH]cn1)NC(=O)[C@@H](NC(=O)[C@H](CC(C)C)NC(=O)[C@H](Cc1ccccc1)NC(=O)[C@H](CC(N)=O)NC(=O)[C@H](C)NC(=O)[C@H](CC(C)C)NC(=O)[C@H](CCCNC(=N)N)NC(=O)[C@H](CCC(N)=O)NC(=O)[C@@H](NC(=O)[C@H](C)NC(=O)[C@@H]1CSSC[C@H](NC(=O)[C@@H](N)CCCCNC(=O)CC[C@H](NC(=O)CC[C@H](NC(=O)CCCCCCCCCCCCCCCCC(=O)O)C(=O)O)C(=O)O)C(=O)N[C@@H](CC(N)=O)C(=O)N[C@@H]([C@@H](C)O)C(=O)N[C@@H](C)C(=O)N[C@@H]([C@@H](C)O)C(=O)N1)[C@@H](C)O)C(C)C)C(=O)N[C@@H](CC(C)C)C(=O)N[C@@H](CO)C(=O)N1CCC[C@H]1C(=O)N[C@H](C(=O)N[C@@H](CC(N)=O)C(=O)N[C@H](C(=O)NCC(=O)N[C@@H](CO)C(=O)N[C@@H](CC(N)=O)C(=O)N[C@H](C(=O)N[C@@H](Cc1ccc(O)cc1)C(N)=O)[C@@H](C)O)C(C)C)[C@@H](C)O
B4: Peptide 12 (SEQ ID NO: 12) (peptide)
peptide: K([γGlu-C18 diacid])KCNTATCATQRLAEFLRHSSNN[αMeF]GPILPPTNVGSNTY-NH2
modifications: disulfide 3-8; N-terminus assumed
SMILES: CC[C@H](C)[C@H](NC(=O)[C@@H]1CCCN1C(=O)CNC(=O)[C@](C)(Cc1ccccc1)NC(=O)[C@H](CC(N)=O)NC(=O)[C@H](CC(N)=O)NC(=O)[C@H](CO)NC(=O)[C@H](CO)NC(=O)[C@H](Cc1c[nH]cn1)NC(=O)[C@H](CCCNC(=N)N)NC(=O)[C@H](CC(C)C)NC(=O)[C@H](Cc1ccccc1)NC(=O)[C@H](CCC(=O)O)NC(=O)[C@H](C)NC(=O)[C@H](CC(C)C)NC(=O)[C@H](CCCNC(=N)N)NC(=O)[C@H](CCC(N)=O)NC(=O)[C@@H](NC(=O)[C@H](C)NC(=O)[C@@H]1CSSC[C@H](NC(=O)[C@H](CCCCN)NC(=O)[C@@H](N)CCCCNC(=O)CC[C@H](NC(=O)CCCCCCCCCCCCCCCCC(=O)O)C(=O)O)C(=O)N[C@@H](CC(N)=O)C(=O)N[C@@H]([C@@H](C)O)C(=O)N[C@@H](C)C(=O)N[C@@H]([C@@H](C)O)C(=O)N1)[C@@H](C)O)C(=O)N[C@@H](CC(C)C)C(=O)N1CCC[C@H]1C(=O)N1CCC[C@H]1C(=O)N[C@H](C(=O)N[C@@H](CC(N)=O)C(=O)N[C@H](C(=O)NCC(=O)N[C@@H](CO)C(=O)N[C@@H](CC(N)=O)C(=O)N[C@H](C(=O)N[C@@H](Cc1ccc(O)cc1)C(N)=O)[C@@H](C)O)C(C)C)[C@@H](C)O

biological target: T1, human amylin receptor (calcitonin …); test: cell-based or functional assay

EC50 (cAMP production)	Ratio (EC50 hCTR / EC50 hAMYR3)	Binder
0.126 nM	42	B1
0.861 nM	2	{C20 diacid-γGlu}-KCNTATCATQRLANFLVHSSNNFGPILPPTNVGSNTY-NH2 (disulfide 2-7) [Peptide 112 (SEQ ID NO: 112)]
0.375 nM	54	B2
0.32 nM	42	B3
0.183 nM	15	{C18 diacid-γGlu}-CNTATCATQRLAEFLRHSSNN[αMeF]GPILPPTNVGSNTY-NH2 (disulfide 1-6; numbers in words are those of the source; also: K1 deleted) [Peptide 10 (SEQ ID NO: 10)]
0.158 nM	8	B4
1.17 nM	16	{C20 diacid-γGlu-AEEA-AEEA}-KCNTATCATQRLANFLVHSSNNFGPILPPTNVGSNTY-NH2 (disulfide 2-7) [Peptide 113 (SEQ ID NO: 113)]

biological target: T2, human calcitonin receptor; test: cell-based or functional assay

EC50 (cAMP production)	Binder
5.27 nM	B1
1.33 nM	{C20 diacid-γGlu}-KCNTATCATQRLANFLVHSSNNFGPILPPTNVGSNTY-NH2 (disulfide 2-7) [Peptide 112 (SEQ ID NO: 112)]
20.2 nM	B2
13.5 nM	B3
2.73 nM	{C18 diacid-γGlu}-CNTATCATQRLAEFLRHSSNN[αMeF]GPILPPTNVGSNTY-NH2 (disulfide 1-6; numbers in words are those of the source; also: K1 deleted) [Peptide 10 (SEQ ID NO: 10)]
1.22 nM	B4
18.5 nM	{C20 diacid-γGlu-AEEA-AEEA}-KCNTATCATQRLANFLVHSSNNFGPILPPTNVGSNTY-NH2 (disulfide 2-7) [Peptide 113 (SEQ ID NO: 113)]

biological target: T3, rat amylin receptor (calcitonin …); test: cell-based or functional assay

EC50 (cAMP production)	Binder
0.0048 nM	B1
0.016 nM	{C20 diacid-γGlu}-KCNTATCATQRLANFLVHSSNNFGPILPPTNVGSNTY-NH2 (disulfide 2-7) [Peptide 112 (SEQ ID NO: 112)]
0.0256 nM	B2
0.0178 nM	B3
0.0121 nM	{C18 diacid-γGlu}-CNTATCATQRLAEFLRHSSNN[αMeF]GPILPPTNVGSNTY-NH2 (disulfide 1-6; numbers in words are those of the source; also: K1 deleted) [Peptide 10 (SEQ ID NO: 10)]
0.005 nM	B4
0.0326 nM	{C20 diacid-γGlu-AEEA-AEEA}-KCNTATCATQRLANFLVHSSNNFGPILPPTNVGSNTY-NH2 (disulfide 2-7) [Peptide 113 (SEQ ID NO: 113)]

biological target: T4, rat calcitonin receptor; test: cell-based or functional assay

EC50 (cAMP production)	Binder
2.43 nM	B1
0.259 nM	{C20 diacid-γGlu}-KCNTATCATQRLANFLVHSSNNFGPILPPTNVGSNTY-NH2 (disulfide 2-7) [Peptide 112 (SEQ ID NO: 112)]
19.9 nM	B2
9.72 nM	B3
2.78 nM	{C18 diacid-γGlu}-CNTATCATQRLAEFLRHSSNN[αMeF]GPILPPTNVGSNTY-NH2 (disulfide 1-6; numbers in words are those of the source; also: K1 deleted) [Peptide 10 (SEQ ID NO: 10)]
0.107 nM	B4
10.4 nM	{C20 diacid-γGlu-AEEA-AEEA}-KCNTATCATQRLANFLVHSSNNFGPILPPTNVGSNTY-NH2 (disulfide 2-7) [Peptide 113 (SEQ ID NO: 113)]
